The values that follow are results of earlier work, collected in PMC9180016.

pKd, pKi: −log10 of the molar value.

A word on the pKd: it is −log10 of the Kd, conventionally taken in molar units. What is called pKi is −log10 of the Ki, conventionally taken in molar units.

One data set deals with p66Shc (Homo sapiens) (UniProt P29353).
The target in the next data set is cytochrome c (UniProt P99999).
Sequence of UniProt P99999 (P99999 2-105): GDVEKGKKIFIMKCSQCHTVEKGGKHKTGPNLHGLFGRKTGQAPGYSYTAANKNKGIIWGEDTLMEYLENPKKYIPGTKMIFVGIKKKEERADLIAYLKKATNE

Regarding Mortalin (from UniProt P38646), the pKd with p66Shc (Homo sapiens) is 6.07.
In the case of p66Shc (from UniProt P29353), the pKi with cytochrome c is 5.84.
